Results reported in US20220332795A1 (ARO BIOTHERAPEUTICS, published 2022).
Positions count from the first letter of the chain named.

B1: SEQ ID NO 127 (designed binder)
chain: MLPAPKNLVVSRVTEDSARLSWTAPDAAFDSFYIAYAEPRPDGEAIFLGVPGSERSYDLTGLKPGTEYSVLIHGVKGGLLSSPLSAIFTT
notes: FN3 domain
B2: SEQ ID NO 155 (designed binder)
chain: B1 chain with F47W, G49V, S85H, I87R
notes: FN3 domain
B3: SEQ ID NO 135 (designed binder)
chain: B1 chain with F47Q, G49A, S85H, I87F
notes: FN3 domain
B4: SEQ ID NO 147 (designed binder)
chain: B1 chain with F47V, G49E, S85D, I87H
notes: FN3 domain
B5: SEQ ID NO 175 (designed binder)
chain: MLPAPKNLVVSRVTEDSARLSWTAPDAAFDSFRISYCETFYHGEAIVLTVPGSERSYDLTGLKPGTEYSVLIHGVKGGLLSSPLIAKFTT
notes: FN3 domain
B6: SEQ ID NO 179 (designed binder)
chain: B1 chain with Y33P, F47V, G49T, I87F
notes: FN3 domain
B7: SEQ ID NO 154 (designed binder)
chain: B1 chain with F47G, G49W, S85I, I87H
notes: FN3 domain
B8: SEQ ID NO 158 (designed binder)
chain: B1 chain with F47I, G49Q, I87V
notes: FN3 domain
B9: SEQ ID NO 152 (designed binder)
chain: B1 chain with F47T, G49D, S85Y, I87F
notes: FN3 domain
B10: SEQ ID NO 129 (designed binder)
chain: B1 chain with F47N, G49W, S85D, I87S
notes: FN3 domain
B11: SEQ ID NO 153 (designed binder)
chain: B1 chain with F47A, G49H
notes: FN3 domain
B12: SEQ ID NO 167 (designed binder)
chain: B1 chain with Y33F, A35G, A37L, R40Q, D42P, F47I, S85H, I87Y, F88S
notes: FN3 domain
B13: SEQ ID NO 128 (designed binder)
chain: B1 chain with F47V, G49R, S85I, I87S
notes: FN3 domain
B14: SEQ ID NO 160 (designed binder)
chain: B1 chain with F47V, G49T, S85L, I87Y
notes: FN3 domain
B15: SEQ ID NO 171 (designed binder)
chain: B1 chain with F47Q, G49W, S85D, I87Y
notes: FN3 domain
B16: SEQ ID NO 132 (designed binder)
chain: B1 chain with Y33F, A35P, R40S, D42T, F47V, G49T, I87H
notes: FN3 domain
B17: SEQ ID NO 131 (designed binder)
chain: B1 chain with F47H, G49W, S85I, I87H
notes: FN3 domain
B18: SEQ ID NO 164 (designed binder)
chain: B1 chain with F47I, G49R, S85V
notes: FN3 domain
B19: SEQ ID NO 170 (designed binder)
chain: B1 chain with F47H, G49L, S85L, I87H
notes: FN3 domain
B20: SEQ ID NO 166 (designed binder)
chain: B1 chain with G49Q, S85N, I87F
notes: FN3 domain
B21: SEQ ID NO 133 (designed binder)
chain: B1 chain with F47Y, G49Y, S85D, I87F
notes: FN3 domain
B22: SEQ ID NO 145 (designed binder)
chain: B1 chain with F47L, G49Q, S85T
notes: FN3 domain
B23: SEQ ID NO 148 (designed binder)
chain: B1 chain with F47A, G49H, S85R, I87V
notes: FN3 domain
B24: SEQ ID NO 134 (designed binder)
chain: B1 chain with F47G, G49Q
notes: FN3 domain
B25: SEQ ID NO 165 (designed binder)
chain: B1 chain with F47V, G49Q, S85A, I87W
notes: FN3 domain
B26: SEQ ID NO 149 (designed binder)
chain: B1 chain with F47Q, G49W
notes: FN3 domain
B27: SEQ ID NO 159 (designed binder)
chain: B1 chain with F47Y, G49K, S85V, I87H
notes: FN3 domain
B28: SEQ ID NO 138 (designed binder)
chain: B1 chain with A4T, F47Q, G49R, S85H, I87S
notes: FN3 domain
B29: SEQ ID NO 141 (designed binder)
chain: B1 chain with S85I, I87F
notes: FN3 domain
B30: SEQ ID NO 156 (designed binder)
chain: B1 chain with G49Q, S85A, I87V
notes: FN3 domain
B31: SEQ ID NO 146 (designed binder)
chain: B1 chain with F47T, G49H
notes: FN3 domain
B32: SEQ ID NO 150 (designed binder)
chain: B1 chain with W22R, F47V, G49I
notes: FN3 domain
B33: SEQ ID NO 178 (designed binder)
chain: B1 chain with F47Q, G49Q, F88V
notes: FN3 domain
B34: SEQ ID NO 143 (designed binder)
chain: B1 chain with F47L, G49F, S85V, I87H
notes: FN3 domain
B35: SEQ ID NO 157 (designed binder)
chain: B1 chain with F47L, G49H, F88S
notes: FN3 domain
B36: SEQ ID NO 169 (designed binder)
chain: B1 chain with F47L, G49L, I87V
notes: FN3 domain
B37: SEQ ID NO 144 (designed binder)
chain: B1 chain with F47G, G49Y, S85G, I87F
notes: FN3 domain
B38: SEQ ID NO 137 (designed binder)
chain: B1 chain with F47V, G49D, S85V, I87E
notes: FN3 domain

Biological target: T1, recombinant biotinylated human CD71 extracellular domain (human, UniProt P02786 89-760, biotinylated)
T1 construct: extracellular domain; also called hCD71; huCD71 ECD
Experiment: solution ELISA

T1 sequence (P02786 other isoform, or with tags, fused parts or gaps): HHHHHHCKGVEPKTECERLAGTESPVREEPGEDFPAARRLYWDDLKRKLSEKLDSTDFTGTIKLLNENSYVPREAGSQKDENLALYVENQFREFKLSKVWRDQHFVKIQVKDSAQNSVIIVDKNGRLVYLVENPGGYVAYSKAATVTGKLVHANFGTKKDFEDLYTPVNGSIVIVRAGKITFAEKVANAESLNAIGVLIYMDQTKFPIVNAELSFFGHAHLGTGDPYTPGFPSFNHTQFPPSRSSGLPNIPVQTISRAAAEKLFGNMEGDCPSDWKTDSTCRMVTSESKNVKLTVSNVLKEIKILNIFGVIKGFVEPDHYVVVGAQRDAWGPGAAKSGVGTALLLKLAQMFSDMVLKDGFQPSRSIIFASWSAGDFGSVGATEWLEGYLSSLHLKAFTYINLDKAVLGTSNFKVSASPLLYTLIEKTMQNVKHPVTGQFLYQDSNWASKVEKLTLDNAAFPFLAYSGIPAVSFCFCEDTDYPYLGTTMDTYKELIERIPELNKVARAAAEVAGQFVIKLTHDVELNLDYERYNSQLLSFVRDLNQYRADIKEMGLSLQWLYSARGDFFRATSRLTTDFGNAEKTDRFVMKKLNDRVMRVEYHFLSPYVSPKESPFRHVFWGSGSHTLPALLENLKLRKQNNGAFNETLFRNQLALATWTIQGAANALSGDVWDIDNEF

hCD71, RLU	Binder
1.41e+06 RLU	B1
513000 RLU	B2
967000 RLU	B3
2.94e+06 RLU	B4
4.32e+06 RLU	B5
3.68e+06 RLU	B6
779000 RLU	B7
4.99e+06 RLU	B8
764000 RLU	B9
219000 RLU	B10
339000 RLU	B11
4.17e+06 RLU	B12
4.31e+06 RLU	B13
4.46e+06 RLU	B14
653000 RLU	B15
1.78e+06 RLU	B16
203000 RLU	B17
3.78e+06 RLU	B18
814000 RLU	B19

hCD71, RLU	Binder
1.22e+06 RLU	B20
1.04e+06 RLU	B21
6.2e+06 RLU	B22
290000 RLU	B23
640000 RLU	B24
4.91e+06 RLU	B25
1.56e+06 RLU	B26
185000 RLU	B27
1.08e+06 RLU	B28
965000 RLU	B29
2.46e+06 RLU	B30
1.08e+06 RLU	B31
1.3e+06 RLU	B32
865000 RLU	B33
3.25e+06 RLU	B34
3.61e+06 RLU	B35
4.14e+06 RLU	B36
516000 RLU	B37
5.11e+06 RLU	B38

Biological target: T2, CD71 apical domain (UniProt P02786 189-383, limits assumed)
T2 construct: domain: Apical domain
Experiment: solution ELISA

T2 sequence (P02786 189-383 limits assumed): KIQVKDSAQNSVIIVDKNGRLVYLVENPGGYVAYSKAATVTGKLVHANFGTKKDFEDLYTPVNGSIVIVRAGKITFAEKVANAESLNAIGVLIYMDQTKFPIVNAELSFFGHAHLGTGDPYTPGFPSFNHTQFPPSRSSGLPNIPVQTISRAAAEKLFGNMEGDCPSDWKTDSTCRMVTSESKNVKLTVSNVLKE

Apical domain, RLU	Binder
6.24e+06 RLU	B1
4.86e+06 RLU	B2
6.05e+06 RLU	B3
6.89e+06 RLU	B4
7.16e+06 RLU	B5
7.29e+06 RLU	B6
5.54e+06 RLU	B7
8.01e+06 RLU	B8
4.96e+06 RLU	B9
4.18e+06 RLU	B10
3.96e+06 RLU	B11
128000 RLU	B12
7.41e+06 RLU	B13
8.31e+06 RLU	B14
5.48e+06 RLU	B15
7.43e+06 RLU	B16
5.28e+06 RLU	B17
8.42e+06 RLU	B18
4.86e+06 RLU	B19

Apical domain, RLU	Binder
6.08e+06 RLU	B20
4.74e+06 RLU	B21
8.3e+06 RLU	B22
3.41e+06 RLU	B23
5.39e+06 RLU	B24
8.37e+06 RLU	B25
6.16e+06 RLU	B26
4.43e+06 RLU	B27
5.35e+06 RLU	B28
4.96e+06 RLU	B29
6.71e+06 RLU	B30
5.72e+06 RLU	B31
3.16e+06 RLU	B32
4.95e+06 RLU	B33
7.51e+06 RLU	B34
7.39e+06 RLU	B35
7.21e+06 RLU	B36
3.91e+06 RLU	B37
7.87e+06 RLU	B38

Biological target: T1, recombinant biotinylated human CD71 …
Experiment: solution ELISA, signal ratio to HSA

hCD71:HSA	Binder
66.3	B1
27.7	B2
42.1	B3
204	B4
313	B5
127	B6
33.7	B7
312	B8
55.4	B9
13.8	B10
16	B11
23.2	B12
121	B13
203	B14
35.3	B15
43.2	B16
10.3	B17
147	B18
19.6	B19

hCD71:HSA	Binder
34	B20
41	B21
348	B22
21.1	B23
36.7	B24
175	B25
91.2	B26
14.4	B27
74.3	B28
37	B29
104	B30
63.7	B31
12.7	B32
45	B33
157	B34
94.9	B35
241	B36
30.8	B37
268	B38

Biological target: T2, CD71 apical domain
Experiment: solution ELISA, signal ratio to HSA

apical domain:HSA	Binder
292	B1
263	B2
263	B3
478	B4
519	B5
252	B6
239	B7
500	B8
359	B9
264	B10
186	B11
0.7	B12
209	B13
378	B14
296	B15
180	B16
269	B17
328	B18
117	B19

apical domain:HSA	Binder
170	B20
186	B21
466	B22
248	B23
309	B24
299	B25
361	B26
345	B27
369	B28
190	B29
286	B30
337	B31
30.8	B32
257	B33
363	B34
194	B35
420	B36
234	B37
412	B38
